Test results reported in US8936925B2, “Reconstitution of 5-enolpyruvylshikimate-3-phosphate synthase activity by fragment complementation” (priority 2004, dated 2015).

B1: C86: E. coli EPSPS C-terminal fragment, residue 86 to C-terminus (protein, UniProt P0A6D3 86-427, looked up, fragment)
chain: GALELFLGNAGTAMRPLAAALCLGSNDIVLTGEPRMKERPIGHLVDALRLGGAKITYLEQENYPPLRLQGGFTGGNVDVDGSVSSQFLTALLMTAPLAPEDTVIRIKGDLVSKPYIDITLNLMKTFGVEIENQHYQQFVVKGGQSYQSPGTYLVEGDASSASYFLAAAAIKGGTVKVTGIGRNSMQGDIRFADVLEKMGATICWGDDYISCTRGELNAIDMDMNHIPDAAMTIATAALFAKGTTTLRNIYNWRVKETDRLFAMATELRKVGAEVEEGHDYIRITPPEKLNFAEIATYNDHRMAMCFSLVALSDTPVTILDPKCTAKTFPDYFEQLARISQAA
B2: C105: E. coli EPSPS C-terminal fragment, residue 105 to C-terminus (protein, UniProt P0A6D3 105-427, looked up, fragment)
chain: ALCLGSNDIVLTGEPRMKERPIGHLVDALRLGGAKITYLEQENYPPLRLQGGFTGGNVDVDGSVSSQFLTALLMTAPLAPEDTVIRIKGDLVSKPYIDITLNLMKTFGVEIENQHYQQFVVKGGQSYQSPGTYLVEGDASSASYFLAAAAIKGGTVKVTGIGRNSMQGDIRFADVLEKMGATICWGDDYISCTRGELNAIDMDMNHIPDAAMTIATAALFAKGTTTLRNIYNWRVKETDRLFAMATELRKVGAEVEEGHDYIRITPPEKLNFAEIATYNDHRMAMCFSLVALSDTPVTILDPKCTAKTFPDYFEQLARISQAA
B3: C155: E. coli EPSPS C-terminal fragment, residue 155 to C-terminus (protein, UniProt P0A6D3 155-427, looked up, fragment)
chain: GGFTGGNVDVDGSVSSQFLTALLMTAPLAPEDTVIRIKGDLVSKPYIDITLNLMKTFGVEIENQHYQQFVVKGGQSYQSPGTYLVEGDASSASYFLAAAAIKGGTVKVTGIGRNSMQGDIRFADVLEKMGATICWGDDYISCTRGELNAIDMDMNHIPDAAMTIATAALFAKGTTTLRNIYNWRVKETDRLFAMATELRKVGAEVEEGHDYIRITPPEKLNFAEIATYNDHRMAMCFSLVALSDTPVTILDPKCTAKTFPDYFEQLARISQAA
B4: C166: E. coli EPSPS C-terminal fragment, residue 166 to C-terminus (protein, UniProt P0A6D3 166-427, looked up, fragment)
chain: GSVSSQFLTALLMTAPLAPEDTVIRIKGDLVSKPYIDITLNLMKTFGVEIENQHYQQFVVKGGQSYQSPGTYLVEGDASSASYFLAAAAIKGGTVKVTGIGRNSMQGDIRFADVLEKMGATICWGDDYISCTRGELNAIDMDMNHIPDAAMTIATAALFAKGTTTLRNIYNWRVKETDRLFAMATELRKVGAEVEEGHDYIRITPPEKLNFAEIATYNDHRMAMCFSLVALSDTPVTILDPKCTAKTFPDYFEQLARISQAA
B5: C183: E. coli EPSPS C-terminal fragment, residue 183 to C-terminus (protein, UniProt P0A6D3 183-427, looked up, fragment)
chain: APEDTVIRIKGDLVSKPYIDITLNLMKTFGVEIENQHYQQFVVKGGQSYQSPGTYLVEGDASSASYFLAAAAIKGGTVKVTGIGRNSMQGDIRFADVLEKMGATICWGDDYISCTRGELNAIDMDMNHIPDAAMTIATAALFAKGTTTLRNIYNWRVKETDRLFAMATELRKVGAEVEEGHDYIRITPPEKLNFAEIATYNDHRMAMCFSLVALSDTPVTILDPKCTAKTFPDYFEQLARISQAA
B6: C185: E. coli EPSPS C-terminal fragment, residue 185 to C-terminus (protein, UniProt P0A6D3 185-427, looked up, fragment)
chain: EDTVIRIKGDLVSKPYIDITLNLMKTFGVEIENQHYQQFVVKGGQSYQSPGTYLVEGDASSASYFLAAAAIKGGTVKVTGIGRNSMQGDIRFADVLEKMGATICWGDDYISCTRGELNAIDMDMNHIPDAAMTIATAALFAKGTTTLRNIYNWRVKETDRLFAMATELRKVGAEVEEGHDYIRITPPEKLNFAEIATYNDHRMAMCFSLVALSDTPVTILDPKCTAKTFPDYFEQLARISQAA
B7: C219: E. coli EPSPS C-terminal fragment, residue 219 to C-terminus (protein, UniProt P0A6D3 219-427, looked up, fragment)
chain: HYQQFVVKGGQSYQSPGTYLVEGDASSASYFLAAAAIKGGTVKVTGIGRNSMQGDIRFADVLEKMGATICWGDDYISCTRGELNAIDMDMNHIPDAAMTIATAALFAKGTTTLRNIYNWRVKETDRLFAMATELRKVGAEVEEGHDYIRITPPEKLNFAEIATYNDHRMAMCFSLVALSDTPVTILDPKCTAKTFPDYFEQLARISQAA
B8: N85: E. coli EPSPS N-terminal fragment, N-terminus to residue 85 (protein, UniProt P0A6D3 1-85, looked up, fragment)
chain: MESLTLQPIARVDGTINLPGSKSVSNRALLLAALAHGKTVLTNLLDSDDVRHMLNALTALGVSYTLSADRTRCEIIGNGGPLHAE
B9: N104: E. coli EPSPS N-terminal fragment, N-terminus to residue 104 (protein, UniProt P0A6D3 1-104, looked up, fragment)
chain: MESLTLQPIARVDGTINLPGSKSVSNRALLLAALAHGKTVLTNLLDSDDVRHMLNALTALGVSYTLSADRTRCEIIGNGGPLHAEGALELFLGNAGTAMRPLAA
B10: N154: E. coli EPSPS N-terminal fragment, N-terminus to residue 154 (protein, UniProt P0A6D3 1-154, looked up, fragment)
chain: MESLTLQPIARVDGTINLPGSKSVSNRALLLAALAHGKTVLTNLLDSDDVRHMLNALTALGVSYTLSADRTRCEIIGNGGPLHAEGALELFLGNAGTAMRPLAAALCLGSNDIVLTGEPRMKERPIGHLVDALRLGGAKITYLEQENYPPLRLQ
B11: N165: E. coli EPSPS N-terminal fragment, N-terminus to residue 165 (protein, UniProt P0A6D3 1-165, looked up, fragment)
chain: MESLTLQPIARVDGTINLPGSKSVSNRALLLAALAHGKTVLTNLLDSDDVRHMLNALTALGVSYTLSADRTRCEIIGNGGPLHAEGALELFLGNAGTAMRPLAAALCLGSNDIVLTGEPRMKERPIGHLVDALRLGGAKITYLEQENYPPLRLQGGFTGGNVDVD
B12: N182: E. coli EPSPS N-terminal fragment, N-terminus to residue 182 (protein, UniProt P0A6D3 1-182, looked up, fragment)
chain: MESLTLQPIARVDGTINLPGSKSVSNRALLLAALAHGKTVLTNLLDSDDVRHMLNALTALGVSYTLSADRTRCEIIGNGGPLHAEGALELFLGNAGTAMRPLAAALCLGSNDIVLTGEPRMKERPIGHLVDALRLGGAKITYLEQENYPPLRLQGGFTGGNVDVDGSVSSQFLTALLMTAPL
B13: N184: E. coli EPSPS N-terminal fragment, N-terminus to residue 184 (protein, UniProt P0A6D3 1-184, looked up, fragment)
chain: MESLTLQPIARVDGTINLPGSKSVSNRALLLAALAHGKTVLTNLLDSDDVRHMLNALTALGVSYTLSADRTRCEIIGNGGPLHAEGALELFLGNAGTAMRPLAAALCLGSNDIVLTGEPRMKERPIGHLVDALRLGGAKITYLEQENYPPLRLQGGFTGGNVDVDGSVSSQFLTALLMTAPLAP
B14: N218: E. coli EPSPS N-terminal fragment, N-terminus to residue 218 (protein, UniProt P0A6D3 1-218, looked up, fragment)
chain: MESLTLQPIARVDGTINLPGSKSVSNRALLLAALAHGKTVLTNLLDSDDVRHMLNALTALGVSYTLSADRTRCEIIGNGGPLHAEGALELFLGNAGTAMRPLAAALCLGSNDIVLTGEPRMKERPIGHLVDALRLGGAKITYLEQENYPPLRLQGGFTGGNVDVDGSVSSQFLTALLMTAPLAPEDTVIRIKGDLVSKPYIDITLNLMKTFGVEIENQ

Tested on: aroA gene-mutant E. coli strain AB2829
Assay: In vivo complementation: growth on solid M63 restrictive medium
Assay type: cell-based
Parameters: key: −: failed to grow; +: able to grow
Details: C-terminal fragment alone
Source text: The pKU2100 plasmid constructed as described above and corresponding pACYC1184 plasmid were introduced separately or together into the strain AB2829 deficient in E. coli aroA gene. Then, the strain was streaked on solid M63 restrictive medium and cultured overnight to determine the growth.
In order to test if EPSPS achieves fragment complementation after in vivo expression, genes encoding EPSPS N-terminal peptides were constructed into pACYC184, and genes encoding EPSPS C-terminal peptides were constructed into pBR322 (see the section Materials and Methods for the detailed construction method). Afterwards, these plasmids were introduced into aroA gene-mutant E. coli strain AB2829. EPSPS activity of the protein fragments encoded by these genes was determined by the growth of the strains on M63 restrictive medium.
The pACYC184 and pBR322 plasmids are able to be expressed in the same bacterial cell since they have replicons p15A and ColE1 respectively. In this regard, a pACYC184 plasmid was co-introduced into aroA gene-mutant E. coli strain AB2829 together with a corresponding pKU2100 plasmid, wherein the N-terminal peptide encoded by the pACYC184 plasmid and C-terminal peptide encoded by the pKU2100 plasmid are the two fragments divided at the same site from EPSPS. The resulting strains are streaked on M63 restrictive medium, and cultured at 37° C.
The pBR322 plasmids constructed in section 3.5 a and their relevant pACYC1184 plasmids constructed in section 3.5 b were introduced respectively or together into E. coli strain AB2829 deficient in aroA gene. Then the strains were streaked on solid M63 restrictive medium and cultured overnight to test the growth.

| Molecule | complementation condition, C-terminal |
| --- | --- |
| C372: E. coli EPSPS C-terminal fragment, residue 372 to C-terminus (EKLNFAEIATYNDHRMAMCFSLVALSDTPVTILDPKCTAKTFPDYFEQLARISQAA; UniProt P0A6D3 372-427, looked up, fragment) | − |
| C377: E. coli EPSPS C-terminal fragment, residue 377 to C-terminus (AEIATYNDHRMAMCFSLVALSDTPVTILDPKCTAKTFPDYFEQLARISQAA; UniProt P0A6D3 377-427, looked up, fragment) | − |
| C384: E. coli EPSPS C-terminal fragment, residue 384 to C-terminus (DHRMAMCFSLVALSDTPVTILDPKCTAKTFPDYFEQLARISQAA; UniProt P0A6D3 384-427, looked up, fragment) | − |
| B1 | − |
| B2 | − |
| B3 | − |
| B4 | − |
| B5 | − |
| B6 | − |
| B7 | − |

Same assay, conditions: N-terminal fragment alone

| Molecule | complementation condition, N-terminal |
| --- | --- |
| N31: E. coli EPSPS N-terminal fragment, N-terminus to residue 31 (MESLTLQPIARVDGTINLPGSKSVSNRALLL; UniProt P0A6D3 1-31, looked up, fragment) | − |
| B8 | − |
| B9 | − |
| B10 | − |
| B11 | − |
| B12 | − |
| B13 | − |
| B14 | − |
